Results on eight molecules are retold here after patent publication US20120328512A1 (BRACCO IMAGING S P A, published 2012).

Bridge positions count the residues as written; N and C are the ends. Square brackets hold non-standard residues; d marks the D form. AEEA = NCCOCCOCC(=O)O

The labels stand for the following.
B1: Seq023-PL1 (peptide)
peptide: H-RWQPCPWESWTFCWDPGGGK-NH2
modifications: disulfide 5-13; not fully specified (residue 20); printed as RWQPC*PWESWTFC*WDPGGGK(DSPE-PG4-Glut)-NH2
B2: Seq016-PL1 (peptide)
peptide: Ac-GWQPCPWESWTFCWDPGGGK-NH2
modifications: disulfide 5-13; not fully specified (residue 20); printed as Ac-GWQPC*PWESWTFC*WDPGGGK(DSPE-PG4-Glut)-NH2
B3: Seq005-PL1 (peptide)
peptide: Ac-WQPCPAESWTFCWDPGGGK-NH2
modifications: disulfide 4-12; not fully specified (residue 19); printed as Ac-WQPC*PAESWTFC*WDPGGGK(DSPE-PG4-Glut)-NH2
B4: Seq024-PL1 (peptide)
peptide: Ac-SGSGSGSGWQPCPWESWTFCWDPGGGK-NH2
modifications: disulfide 12-20; not fully specified (residue 27); printed as Ac-SGSGSGSGWQPC*PWESWTFC*WDPGGGK(DSPE-PG4-Glut)-NH2
B5: Seq017-PL1 (peptide)
peptide: Ac-SGSG[AEEA]WQPCPWESWTFCWDPGGGK-NH2
modifications: disulfide 9-17; not fully specified (residue 24); printed as Ac-SGSGJWQPC*PWESWTFC*WDPGGGK(DSPE-PG4-Glut)-NH2
B6: Seq000 (peptide)
peptide: WQPCPWESWTFCWDPGGGK
modifications: N-terminal acetyl (Ac-); C-terminal amide (-NH2); disulfide between the two C* cysteines
notes: also called comparative peptide

The first assay deals with T1, fibrin (human fibrinogen clotted with human thrombin on glass coverslips) (human, UniProt P02671 36-629; P02675 45-491; P02679 27-437, limits assumed).
T1 construct: also called fibrin-coated coverslips
T1 sequence (looked up) 1: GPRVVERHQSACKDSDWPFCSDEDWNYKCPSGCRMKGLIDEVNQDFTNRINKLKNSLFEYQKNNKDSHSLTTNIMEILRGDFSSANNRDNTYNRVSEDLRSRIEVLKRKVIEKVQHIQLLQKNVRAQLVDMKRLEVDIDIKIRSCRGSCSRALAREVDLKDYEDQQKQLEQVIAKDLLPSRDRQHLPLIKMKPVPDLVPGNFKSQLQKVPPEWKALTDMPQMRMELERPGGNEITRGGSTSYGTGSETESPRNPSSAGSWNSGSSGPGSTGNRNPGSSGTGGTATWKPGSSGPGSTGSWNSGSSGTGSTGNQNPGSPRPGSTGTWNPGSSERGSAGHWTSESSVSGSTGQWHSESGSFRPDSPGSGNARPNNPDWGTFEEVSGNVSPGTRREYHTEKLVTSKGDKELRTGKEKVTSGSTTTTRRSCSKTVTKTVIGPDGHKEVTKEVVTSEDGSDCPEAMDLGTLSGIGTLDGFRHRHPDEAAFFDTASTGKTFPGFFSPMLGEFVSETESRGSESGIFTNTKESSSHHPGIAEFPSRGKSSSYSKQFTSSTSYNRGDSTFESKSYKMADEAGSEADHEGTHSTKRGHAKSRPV
T1 sequence (looked up) 2: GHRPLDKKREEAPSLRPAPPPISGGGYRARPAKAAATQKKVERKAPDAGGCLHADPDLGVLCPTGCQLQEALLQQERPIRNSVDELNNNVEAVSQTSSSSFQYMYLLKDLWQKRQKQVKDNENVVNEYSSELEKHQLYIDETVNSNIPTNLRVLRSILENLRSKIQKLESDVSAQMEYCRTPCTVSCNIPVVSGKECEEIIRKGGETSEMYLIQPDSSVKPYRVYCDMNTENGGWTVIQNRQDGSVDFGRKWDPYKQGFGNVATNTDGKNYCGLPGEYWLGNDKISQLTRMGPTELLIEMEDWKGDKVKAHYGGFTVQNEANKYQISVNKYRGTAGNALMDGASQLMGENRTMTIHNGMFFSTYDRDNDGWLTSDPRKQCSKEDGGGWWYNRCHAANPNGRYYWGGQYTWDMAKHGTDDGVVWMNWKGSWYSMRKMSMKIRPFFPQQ
T1 sequence (looked up) 3: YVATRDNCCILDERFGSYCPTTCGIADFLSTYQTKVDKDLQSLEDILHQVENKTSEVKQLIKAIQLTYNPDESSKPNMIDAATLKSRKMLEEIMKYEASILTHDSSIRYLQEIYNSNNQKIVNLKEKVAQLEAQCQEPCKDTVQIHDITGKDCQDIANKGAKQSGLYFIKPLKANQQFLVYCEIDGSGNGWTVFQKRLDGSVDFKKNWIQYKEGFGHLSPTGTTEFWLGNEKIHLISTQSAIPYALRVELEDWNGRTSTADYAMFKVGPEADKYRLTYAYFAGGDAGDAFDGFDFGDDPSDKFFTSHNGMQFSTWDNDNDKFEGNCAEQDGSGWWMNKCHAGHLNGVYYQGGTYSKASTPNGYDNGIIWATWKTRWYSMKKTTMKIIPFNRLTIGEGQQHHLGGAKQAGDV
In words: flow chamber test of targeted microvesicles on fibrin-coated coverslips. As for the experimental part: Five mL of a solution of BSA 1% w/v in PBS pH 7.4 were added into a 60 mm Petri Dish containing one coverslip, and incubated at 37° C. for 15 min. Then the coverslip was washed three times with 5 ml of Tween 80/PBS (0.1%, v:v). Twenty five μL of human thrombin solution at 5 U/mL were added per mL of human fibrinogen solution (0.5 mg/mL in 50 mM sodium phosphate, NaCl 280 mM, pH 7.4) and delicately mixed. Five mL of this solution were immediately distributed in each Petri dish. The coverslips were incubated for one hour at 37° C. and then dried overnight at 45° C.
Binding studies of targeted microvesicles were carried out using a parallel-plate flow chamber (FCS2, Bioptech Inc., Butler, Pa., USA) with a chamber gasket of 0.25 mm in thickness, with a customized adapter for upside-down chamber inversion. The coated coverslip was inserted as a plate of the flow chamber. Gas-filled Microvesicles (5×10⁶ bubbles/mL in 50% human plasma in PBS) were drawn through the flow chamber using an adjustable infusion pump (Auto Syringe® AS50 Infusion Pump, Baxter, Deerfield, Ill., USA) with a 60 mL syringe (Terumo). The pump flow rate was adjusted to 1 mL/min to obtain the desired shear rate of about 114 s⁻¹. After 10 minutes, the flow was stopped and pictures were taken randomly on different positions on the coverslip (on surfaces of about 0.025 mm²) using a 40× objective and a CCD monochrome camera (F-View II, Soft Imaging Systems, Germany) connected to an inverted Olympus IX 50 microscope. The number of microvesicles on each picture was determined, averaged with respect to the total number of pictures and the obtained value was then divided by ten (to obtain the “slope”, i.e. the average amount of bound microvesicles per minute).
Consider B1, for which the binding result is reported as “binds”.

Turning to B2, the binding result is given as “binds”.

Take Ac-WQPCPAESWTFCWDPGAGSGK-NH2 (disulfide 4-12; not fully specified (residue 21), Linker GAGSGK) [Seq005-PL5]: the binding result is “binds”.

Regarding Ac-WQPCPAESWTFCWDPGSAGSK-NH2 (disulfide 4-12; not fully specified (residue 21), Linker GSAGSK) [Seq005-PL4], the binding result is “binds”.

For the molecule B3, the binding result was “binds”.

Take B4: the binding result was “binds”.

Turning to B5, the binding result is on record as “binds”.

For a further assay, the target named is T2, DDE.
T2 chain 1: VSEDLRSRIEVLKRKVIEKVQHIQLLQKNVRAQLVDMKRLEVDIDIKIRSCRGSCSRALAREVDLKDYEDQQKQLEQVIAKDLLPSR
T2 chain 2: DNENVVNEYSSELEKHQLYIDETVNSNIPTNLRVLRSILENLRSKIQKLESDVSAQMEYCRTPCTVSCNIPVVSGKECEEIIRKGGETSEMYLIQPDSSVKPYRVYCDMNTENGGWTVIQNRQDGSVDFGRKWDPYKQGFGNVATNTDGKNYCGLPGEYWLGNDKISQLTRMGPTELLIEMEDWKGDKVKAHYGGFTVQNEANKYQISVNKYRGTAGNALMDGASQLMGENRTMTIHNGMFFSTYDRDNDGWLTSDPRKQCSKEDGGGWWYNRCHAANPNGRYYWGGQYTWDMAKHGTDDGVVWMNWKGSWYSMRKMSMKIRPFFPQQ
T2 chain 3: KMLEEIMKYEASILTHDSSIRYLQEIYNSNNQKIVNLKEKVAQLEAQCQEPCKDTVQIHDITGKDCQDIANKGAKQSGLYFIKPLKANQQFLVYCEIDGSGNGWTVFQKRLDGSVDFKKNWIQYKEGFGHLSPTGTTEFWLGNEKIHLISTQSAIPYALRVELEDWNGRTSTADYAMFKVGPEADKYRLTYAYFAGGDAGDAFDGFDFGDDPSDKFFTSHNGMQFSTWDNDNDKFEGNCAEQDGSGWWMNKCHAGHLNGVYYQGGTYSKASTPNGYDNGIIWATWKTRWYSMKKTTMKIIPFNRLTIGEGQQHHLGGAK
T2 chain 4: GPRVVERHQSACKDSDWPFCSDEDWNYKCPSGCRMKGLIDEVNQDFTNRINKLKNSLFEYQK
T2 chain 5: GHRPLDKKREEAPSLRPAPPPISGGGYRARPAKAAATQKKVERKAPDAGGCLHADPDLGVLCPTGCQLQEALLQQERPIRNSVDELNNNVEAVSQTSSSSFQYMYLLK
T2 chain 6: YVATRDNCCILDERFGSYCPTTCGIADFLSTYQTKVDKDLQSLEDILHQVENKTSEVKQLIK
Nature of the assay: competition fluorescence polarization on DDE; this is the reference peptide, 1 by definition. (In general: Polarisation of emitted light reports the rotation of a fluorescent probe.)
For the molecule B6, the “Rel IC50” value is 1 ratio to the reference peptide.
